Measured values from patent publication EP4059514A1 (Xencor, Inc., dated 2022).

Legend:
[1] = target: T1, cyno CD3 (cyno, UniProt Q95LI5 22-117); test: method not stated in the legend (Figure 143)
T1 construct: also called cynomolgus monkey CD3
T1 sequence (looked up): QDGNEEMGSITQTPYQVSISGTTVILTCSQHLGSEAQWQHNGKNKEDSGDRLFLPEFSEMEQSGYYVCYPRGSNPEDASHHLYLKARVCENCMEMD

[2] = target: human CD3 (human, UniProt P07766 23-126); test: method not stated in the legend (Figure 142)
Sequence of human CD3 (P07766 23-126): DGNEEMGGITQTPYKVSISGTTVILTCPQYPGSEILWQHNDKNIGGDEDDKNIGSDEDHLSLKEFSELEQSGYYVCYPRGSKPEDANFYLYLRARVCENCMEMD

Kd [1]: 5.7 nM | Kd [2]: 8.1 nM
B1: XENP14045 (anti-CD123 x anti-CD3) bispecific (bispecific antibody)
chain 1: QVQLQQSGAEVKKPGASVKVSCKASGYTFTDYYMKWVKQSHGKSLEWMGDIIPSNGATFYNQKFKGKATLTVDRSTSTAYMELSSLRSEDTAVYYCARSHLLRASWFAYWGQGTLVTVSSASTKGPSVFPLAPSSKSTSGGTAALGCLVKDYFPEPVTVSWNSGALTSGVHTFPAVLQSSGLYSLSSVVTVPSSSLGTQTYICNVNHKPSDTKVDKKVEPKSCDKTHTCPPCPAPPVAGPSVFLFPPKPKDTLMISRTPEVTCVVVDVKHEDPEVKFNWYVDGVEVHNAKTKPREEEYNSTYRVVSVLTVLHQDWLNGKEYKCKVSNKALPAPIEKTISKAKGQPREPQVYTLPPSREEMTKNQVSLTCDVSGFYPSDIAVEWESDGQPENNYKTTPPVLDSDGSFFLYSKLTVDKSRWEQGDVFSCSVMHEALHNHYTQKSLSLSPGK
chain 2: not shown
chain 3: not shown
